For data set [1], the system named is T1, His6-SUMO-MucR1 (Sinorhizobium fredii CCBAU45436 (SF45436)), ORF:2d010df8.
T1 sequence: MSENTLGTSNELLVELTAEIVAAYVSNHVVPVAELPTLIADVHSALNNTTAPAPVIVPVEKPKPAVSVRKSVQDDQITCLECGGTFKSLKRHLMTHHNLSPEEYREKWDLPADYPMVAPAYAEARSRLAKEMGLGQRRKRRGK
Nature of the data set: EMSA. The note with it: EMSA: 25 mM Tris pH 7.5, 100 mM KCl, 5 mM MgCl2, 5% glycerol, 0.05% dodecyl maltoside, 0.5 mg/mL BSA, 0.1 mg/mL sonicated salmon sperm DNA; room temperature …. (In general: In EMSA bound probe runs differently from free probe, usually more slowly.)

Data set [2] deals with T2, His6-SUMO-MucR2 (Sinorhizobium fredii CCBAU45436 (SF45436)), ORF:a672ea6f.
T2 sequence: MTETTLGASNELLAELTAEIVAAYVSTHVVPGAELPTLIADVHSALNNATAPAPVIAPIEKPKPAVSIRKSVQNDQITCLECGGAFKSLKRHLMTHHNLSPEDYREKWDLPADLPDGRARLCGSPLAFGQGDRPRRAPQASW
Nature of the data set: EMSA. The note with it: EMSA: 25 mM Tris pH 7.5, 100 mM KCl, 5 mM MgCl2, 5% glycerol, 0.05% dodecyl maltoside, 0.5 mg/mL BSA, 0.1 mg/mL sonicated salmon sperm DNA; room temperature ….

Consider one sequence from PMC8857273.

For the sequence “CATATTAGATTCGGAAGGACCGACGACGCCCCTCGATCGCTGCCAGTCCACTGACGATTGTTTTGAAGTGTTCAGCTTCCTGGAGATATAACTTCCAAAAGCCGAAATAAAGTTTGGATCATCTTTGATTTTATACAGTTCTCTGCTACTGCCAGAGCGTCTCCGACTTGGTGCATTTTAGCAACAGGCGTCATTCGAAAGTAAAGCTCACTCATCTATATTCGAGCGATTGGCGGCATTGAAGGCACAG (double strand) [visN promoter probe (250 bp)]”, the values for the binding entry in data set [1] and in data set [2] were “binds” and “no binding”, respectively.
